What was measured:
[1] = target: T1, DVKPEQPLYDEGDR-[Arg34]GLP-1(9-37)
T1 chain: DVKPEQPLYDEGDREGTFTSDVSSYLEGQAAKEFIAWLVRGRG

[2] = target: T2, Lys(Dnp)-PEGDR-HAEGT-Lys(Abz)amide
T2 chain: KPEGDRHAEGTK

[3] = target: T3, DVKPGQELYDDDDK-[Arg34]GLP-1(9-37)
T3 chain: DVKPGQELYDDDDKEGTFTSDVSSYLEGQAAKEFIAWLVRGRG

[4] = target: T4, Lys(Dnp)-WDEGDR-HAEGT-Lys(Abz)amide
T4 chain: KWDEGDRHAEGTK

[5] = target: T5, Lys(Dnp)-HDEGDR-HAEGT-Lys(Abz)amide
T5 chain: KHDEGDRHAEGTK

[6] = target: T6, Lys(Dnp)-EQGDR-EGTFT-Lys(Abz)amide
T6 chain: KEQGDREGTFTK

[7] = target: T7, Lys(Dnp)-EEGDR-HAEGT-Lys(Abz)amide
T7 chain: KEEGDRHAEGTK

[8] = target: T8, Lys(Dnp)-DWGDR-HAEGT-Lys(Abz)amide
T8 chain: KDWGDRHAEGTK

[9] = target: T9, Lys(Dnp)-TEGDR-HAEGT-Lys(Abz)amide
T9 chain: KTEGDRHAEGTK

[10] = target: T10, Lys(Dnp)-KDEGDR-HAEGT-Lys(Abz)amide
T10 chain: KKDEGDRHAEGTK

[11] = target: T11, Lys(Dnp)-DLGDR-EGTFT-Lys(Abz)amide
T11 chain: KDLGDREGTFTK

[12] = target: T12, Lys(Dnp)-DHGDR-HGEGT-Lys(Abz)amide
T12 chain: KDHGDRHGEGTK

[13] = target: T13, Lys(Dnp)-FEGDR-HAEGT-Lys(Abz)amide
T13 chain: KFEGDRHAEGTK

[14] = target: T14, DVKPGQELYDEGDR-[Arg34]GLP-1(9-37)
T14 chain: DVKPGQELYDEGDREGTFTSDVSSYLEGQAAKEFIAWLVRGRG

[15] = target: T15, Lys(Dnp)-DSGDR-HGEGT-Lys(Abz)amide
T15 chain: KDSGDRHGEGTK

[16] = target: T16, Lys(Dnp)-DSGDR-QGTFT-Lys(Abz)amide
T16 chain: KDSGDRQGTFTK

[17] = target: T17, Lys(Dnp)-TDEGDR-HAEGT-Lys(Abz)amide
T17 chain: KTDEGDRHAEGTK

[18] = target: T18, Lys(Dnp)-MEGDR-HAEGT-Lys(Abz)amide
T18 chain: KMEGDRHAEGTK

[19] = target: T19, Lys(Dnp)-PDEGDR-HAEGT-Lys(Abz)amide
T19 chain: KPDEGDRHAEGTK

[20] = target: T20, Lys(Dnp)-EDGDR-HAEGT-Lys(Abz)amide
T20 chain: KEDGDRHAEGTK

[21] = target: T21, Lys(Dnp)-VIGDRHAEGT-Lys(Abz)amide
T21 chain: KVIGDRHAEGTK

[22] = target: T22, Lys(Dnp)-DLGDR-HSQGT-Lys(Abz)amide
T22 chain: KDLGDRHSQGTK

[23] = target: T23, DVKPGQPLYDDDDK-[Arg34]GLP-1(9-37)
T23 chain: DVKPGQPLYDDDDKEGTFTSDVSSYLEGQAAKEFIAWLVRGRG

[24] = target: T24, Lys(Dnp)-EQGDR-HGEGT-Lys(Abz)amide
T24 chain: KEQGDRHGEGTK

[25] = target: T25, Lys(Dnp)-ELGDR-EGTFT-Lys(Abz)amide
T25 chain: KELGDREGTFTK

[26] = target: T26, DVKPGEPLYDEGDR-[Arg34]GLP-1(9-37)
T26 chain: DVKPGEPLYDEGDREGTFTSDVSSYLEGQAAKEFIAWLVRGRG

[27] = target: T27, Lys(Dnp)-DLGDR-QGTFT-Lys(Abz)amide
T27 chain: KDLGDRQGTFTK

[28] = target: T28, Lys(Dnp)-IYGDRHAEGT-Lys(Abz)amide
T28 chain: KIYGDRHAEGTK

[29] = target: T29, Lys(Dnp)-DYGDR-HGEGT-Lys(Abz)amide
T29 chain: KDYGDRHGEGTK

[30] = target: T30, Lys(Dnp)-AEGDR-HAEGT-Lys(Abz)amide
T30 chain: XAEGDRHAEGTX

[31] = target: T31, Lys(Dnp)-DLGDR-HGEGT-Lys(Abz)amide
T31 chain: KDLGDRHGEGTK

[32] = target: T32, Lys(Dnp)-LDEGDR-HAEGT-Lys(Abz)amide
T32 chain: KLDEGDRHAEGTK

[33] = target: T33, Lys(Dnp)-EEGDR-HGEGT-Lys(Abz)amide
T33 chain: KEEGDRHGEGTK

[34] = target: T34, Lys(Dnp)-QEGDR-HAEGT-Lys(Abz)amide
T34 chain: KQEGDRHAEGTK

[35] = target: T35, Lys(Dnp)-EDEGDR-HAEGT-Lys(Abz)amide
T35 chain: KEDEGDRHAEGTK

[36] = target: T36, Lys(Dnp)-ADEGDR-HAEGT-Lys(Abz)amide
T36 chain: KADEGDRHAEGTK

[37] = target: T37, DVKPGQPEYDEGDR-[Arg34]GLP-1(9-37)
T37 chain: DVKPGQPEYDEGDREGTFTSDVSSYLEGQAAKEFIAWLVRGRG

[38] = target: T38, Lys(Dnp)-HEGDR-HAEGT-Lys(Abz)amide
T38 chain: KHEGDRHAEGTK

[39] = target: T39, Lys(Dnp)-EGGDR-HAEGT-Lys(Abz)amide
T39 chain: KEGGDRHAEGTK

[40] = target: T40, DVKEGQPLYDEGDR-[Arg34]GLP-1(9-37)
T40 chain: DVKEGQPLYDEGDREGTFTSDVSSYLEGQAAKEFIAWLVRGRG

B1: bovine Enterokinase light chain variant (C112A, L134K, I135K) (protein)
chain: IVGGSDSREGAWPWVVALYFDDQQVCGASLVSRDWLVSAAHCVYGRNMEPSKWKAVLGLHMASNLTSPQIETRLIDQIVINPHYNKRRKNNDIAMMHLEMKVNYTDYIQPIALPEENQVFPPGRICSIAGWGAKKYQGSTADVLQEADVPLLSNEKCQQQMPEYNITENMVCAGYEAGGVDSCQGDSGGPLMCQENNRWLLAGVTSFGYQCALPNRPGVYARVPRFTEWIQSFLH
Q: How did the Activity (%) [1] turn out when B1 was run?
A: The Activity (%) was 803%.

Q: What about the Activity (%) [2] of the same protein?
A: Its Activity (%) is 441%.

Q: And the Activity (%) [3]?
A: Its Activity (%) is 168%.

Q: And the Activity (%) [4]?
A: Its Activity (%) is 181%.

Q: What about the Activity (%) [5] of the same protein?
A: The Activity (%) was 204%.

Q: And the Activity (%) [6]?
A: Its Activity (%) is 442%.

Q: And the Activity (%) [7]?
A: Its Activity (%) is 988%.

Q: What about the Activity (%) [8] of the same protein?
A: The Activity (%) was 513%.

Q: And the Activity (%) [9]?
A: Its Activity (%) is 393%.

Q: And the Activity (%) [10]?
A: The Activity (%) was 175%.

Q: What about the Activity (%) [11] of the same protein?
A: The Activity (%) was 438%.

Q: What about the Activity (%) [12] of the same protein?
A: The Activity (%) was 526%.

Q: What about the Activity (%) [13] of the same protein?
A: Its Activity (%) is 397%.

Q: And the Activity (%) [14]?
A: The Activity (%) was 1040%.

Q: And the Activity (%) [15]?
A: Its Activity (%) is 282%.

Q: And the Activity (%) [16]?
A: Its Activity (%) is 125%.

Q: What about the Activity (%) [17] of the same protein?
A: Its Activity (%) is 237%.

Q: And the Activity (%) [18]?
A: Its Activity (%) is 419%.

Q: And the Activity (%) [19]?
A: Its Activity (%) is 194%.

Q: What about the Activity (%) [20] of the same protein?
A: The Activity (%) was 632%.

Q: And the Activity (%) [21]?
A: The Activity (%) was 68%.

Q: What about the Activity (%) [22] of the same protein?
A: Its Activity (%) is 268%.

Q: And the Activity (%) [23]?
A: Its Activity (%) is 136%.

Q: And the Activity (%) [24]?
A: Its Activity (%) is 432%.

Q: What about the Activity (%) [25] of the same protein?
A: The Activity (%) was 396%.

Q: What about the Activity (%) [26] of the same protein?
A: The Activity (%) was 895%.

Q: What about the Activity (%) [27] of the same protein?
A: Its Activity (%) is 222%.

Q: What about the Activity (%) [28] of the same protein?
A: Its Activity (%) is 117%.

Q: And the Activity (%) [29]?
A: The Activity (%) was 469%.

Q: And the Activity (%) [30]?
A: The Activity (%) was 382%.

Q: And the Activity (%) [31]?
A: Its Activity (%) is 438%.

Q: And the Activity (%) [32]?
A: Its Activity (%) is 259%.

Q: And the Activity (%) [33]?
A: The Activity (%) was 641%.

Q: And the Activity (%) [34]?
A: Its Activity (%) is 551%.

Q: What about the Activity (%) [35] of the same protein?
A: Its Activity (%) is 159%.

Q: And the Activity (%) [36]?
A: The Activity (%) was 100%.

Q: And the Activity (%) [37]?
A: The Activity (%) was 625%.

Q: And the Activity (%) [38]?
A: The Activity (%) was 468%.

Q: And the Activity (%) [39]?
A: The Activity (%) was 586%.

Q: What about the Activity (%) [40] of the same protein?
A: Its Activity (%) is 913%.

From US20160319321
